# Results: patent publication US20070041972A1 (Alexion, published 2007)
# T1: human low affinity receptor for IgG (FcγRII) on K562 cells (human, UniProt P12318 34-317)
# T1 construct: whole, on cells
# T1 sequence (looked up): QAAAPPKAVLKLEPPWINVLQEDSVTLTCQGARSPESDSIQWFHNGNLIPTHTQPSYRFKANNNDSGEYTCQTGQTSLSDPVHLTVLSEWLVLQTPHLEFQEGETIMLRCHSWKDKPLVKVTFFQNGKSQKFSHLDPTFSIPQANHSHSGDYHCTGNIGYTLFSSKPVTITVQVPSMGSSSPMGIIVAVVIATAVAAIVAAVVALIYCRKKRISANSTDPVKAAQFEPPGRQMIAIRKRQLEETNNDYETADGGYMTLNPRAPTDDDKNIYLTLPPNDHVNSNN
# What was measured:
# [1] = target: T1, human low affinity receptor for IgG …; assay: flow cytometry on K562 cells, antibody complexed with FITC-rabbit Fab'2 anti-human Fab'2
# Source text: Binding of the FITC—rabbit Fab′2 anti-human Fab′2 antibodies alone is also indicated.
# [2] = target: T2, human high affinity receptor for IgG (FcγRI) on U937 cells (human, UniProt P12314 16-374); assay: flow cytometry competition with 3.0 ng/mL biotinylated hIgG on U937 cells
# T2 construct: whole, on cells; also called FcγRI receptor
# Procedure: The antibody produced in accordance with this Example was tested to evaluate binding to the human high affinity receptor for IgG (FcγRI).
binder,measurement,setting,value
"chimeric OKT3 hG2/G4 recombinant antibody (murine OKT3 variable regions, engineered human IgG2/IgG4 heavy chain constant region, human kappa constant region) (antibody, Made in two expression systems; also called chimeric antibody containing an engineered IgG2/IgG4 human constant region) heavy: not shown light: QIVLTQSPAIMSASPGEKVTMTCSASSSVSYMNWYQQKSGTSPKRWIYDTSKLASGVPAHFRGSGSGTSYSLTISGMEAEDAATYYCQQWSSNPFTFGSGTKLEIKRTVAAPSVFIFPPSDEQLKSGTASVVCLLNNFYPREAKVQWKVDNALQSGNSQESVTEQDSKDSTYSLSSTLTLSKADYEKHKVYACEVTHQGLSSPVTKSFNRGEC",binding result,[1],no binding
same,binding result,[2],no binding
